Laboratory results from publication PMC3195435.

Tests used:
Conditions in all cases: 4% glycerol, 1 mM MgCl2, 1 mM DTT, 50 mM NaCl, 10 mM Tris-HCl pH 7.5, room temperature 30 min; EMSA on 4% native PAGE in 45 mM Tris-borate, 2 mM EDTA pH 8.3 at …
[1] = tested on: anti-FLAG M2 antibody (mouse); assay: EMSA
[2] = tested on: anti-FLAG M2 antibody (mouse); assay: competition
[3] = tested on: anti-FLAG M2 antibody (mouse); assay: bead pull-down, competition

Row | Sequence | Kd [1] [nM] | binding signal (% inhibition of Flag-TRF2dB capture) [2] | IC50 [3] [nM] | binding signal (% release of bound Flag-TRF2dB) [2]
1 | TCGATTTCCTTAGTTGTCTTCCTTAGTGAG [ABA] | 80 | 45 | 96 | 
2 | TCGATTTCCTTAGTTGTCTTCCTTAGTTGTCTTCCTTAGTTGTCTTCCTTAGTGAG [3XABA] |  | 62 |  | 36
